The source of these data is paper PMC10858965.

Holding throughout (test): filter binding
What all share (conditions): 1 mM MgCl2 in FB buffer; Filter binding: 3 parts FB buffer (50 mM Tris pH 8.0, 1 mM MgCl2) + 1 part SEC buffer (20 mM HEPES pH 7.5, 150 mM NaCl, 1 mM DTT, 10% glycerol), 5 min, room …

Data set [1] concerns Lig4 mDBD1+2;XRCC4 (Xenopus laevis;Xenopus laevis?).
For data set [2], the system named is Lig4 delta-DBD;XRCC4 (Xenopus laevis;Xenopus laevis?).
Data set [3] relates to Lig4 mDBD1;XRCC4 (Xenopus laevis;Xenopus laevis?).
For data set [4], the system named is Lig4 mDBD2;XRCC4 (Xenopus laevis;Xenopus laevis?).

In the case of ~1 kb circular DNA, the binding signal (fold weaker than WT) in data set [1] came to 30; in data set [2], 30; in data set [3], 10; in data set [4], 10.
